Test results as given in PMC3857619 (2013).

Target: recombinant PTB (Homo sapiens (Human), UniProt P26599)
Assay: in vitro co-IP (anti-PTB) with western blot

Sequence of recombinant PTB (P26599 whole entry): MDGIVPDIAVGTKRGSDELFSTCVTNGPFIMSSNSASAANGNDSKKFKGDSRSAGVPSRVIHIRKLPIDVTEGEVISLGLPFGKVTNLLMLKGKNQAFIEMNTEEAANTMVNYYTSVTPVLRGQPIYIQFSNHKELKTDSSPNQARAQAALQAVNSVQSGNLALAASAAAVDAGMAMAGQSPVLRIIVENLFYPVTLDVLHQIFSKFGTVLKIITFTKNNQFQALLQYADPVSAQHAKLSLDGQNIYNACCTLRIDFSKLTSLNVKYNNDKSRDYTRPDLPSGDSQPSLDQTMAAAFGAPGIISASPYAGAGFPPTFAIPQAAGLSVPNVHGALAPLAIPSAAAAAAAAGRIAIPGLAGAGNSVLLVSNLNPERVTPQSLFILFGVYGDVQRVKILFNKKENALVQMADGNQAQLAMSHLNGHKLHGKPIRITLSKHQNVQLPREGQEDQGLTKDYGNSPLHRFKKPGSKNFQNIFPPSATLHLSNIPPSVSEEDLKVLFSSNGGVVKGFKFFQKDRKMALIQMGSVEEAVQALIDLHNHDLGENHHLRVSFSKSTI

binding result: binds
B1: recombinant hnRNPA1 (protein)
chain: MSKSESPKEPEQLRKLFIGGLSFETTDESLRSHFEQWGTLTDCVVMRDPNTKRSRGFGFVTYATVEEVDAAMNARPHKVDGRVVEPKRAVSREDSQRPGAHLTVKKIFVGGIKEDTEEHHLRDYFEQYGKIEVIEIMTDRGSGKKRGFAFVTFDDHDSVDKIVIQKYHTVNGHNCEVRKALSKQEMASASSSQRGRSGSGNFGGGRGGGFGGNDNFGRGGNFSGRGGFGGSRGGGGYGGSGDGYNGFGNDGGYGGGGPGYSGGSRGYGSGGQGYGNQGSGYGGSGSYDSYNNGGGGGFGGGSGSNFGGGGSYNDFGNYNNQSSNFGPMKGGNFGGRSSGPYGGGGQYFAKPRNQGGYGGSSSSSSYGSGRRF
